# The MegaScale stability set (Tsuboyama et al. 2023)
# B1: 2K2A (parent)
# chain: ELREAFRLYDKEGNGYISTDVMREILAELDETLSSEDLDAMIDEIDADGSGTVDFEEFMGVMT
# Variants of: B1
# Test: folding stability dG (cDNA display proteolysis); higher = more stable
# Settings: PBS, room temperature
row,Variant,folding stability dG
1,ELREAFRLYDKEGNGYISTDVMREILAELDETLVSEDLDAMIDEIDADGSGTVDFEEFMGVMT [S34V],1.02 kcal/mol
2,ELREAFRLYDKEGNGYISTDVMREILAELDETLRSEDLDAMIDEIDADGSGTVDFEEFMGVMT [S34R],1.47 kcal/mol
3,ELREAFRLYDKEGNGYISTDVMREILAELDETLPSEDLDAMIDEIDADGSGTVDFEEFMGVMT [S34P],0.476 kcal/mol
4,ELREAFRLYDKEGNGYISTDVMREILAELDETLQSEDLDAMIDEIDADGSGTVDFEEFMGVMT [S34Q],1.18 kcal/mol
5,ELREAFRLYDKEGNGYISTDVMREILAELDETLCSEDLDAMIDEIDADGSGTVDFEEFMGVMT [S34C],1.2 kcal/mol
6,ELREAFRLYDKEGNGYISTDVMREILAELDETLESEDLDAMIDEIDADGSGTVDFEEFMGVMT [S34E],1.05 kcal/mol
7,ELREAFRLYDKEGNGYISTDVMREILAELDETLTSEDLDAMIDEIDADGSGTVDFEEFMGVMT [S34T],2.12 kcal/mol
8,ELREAFRLYDKEGNGYISTDVMREILAELDETLDSEDLDAMIDEIDADGSGTVDFEEFMGVMT [S34D],1.3 kcal/mol
9,ELREAFRLYDKEGNGYISTDVMREILAELDETLASEDLDAMIDEIDADGSGTVDFEEFMGVMT [S34A],1.26 kcal/mol
10,ELREAFRLYDKEGNGYISTDVMREILAELDETLKSEDLDAMIDEIDADGSGTVDFEEFMGVMT [S34K],1.45 kcal/mol
11,ELREAFRLYDKEGNGYISTDVMREILAELDETLFSEDLDAMIDEIDADGSGTVDFEEFMGVMT [S34F],0.67 kcal/mol
12,ELREAFRLYDKEGNGYISTDVMREILAELDETLWSEDLDAMIDEIDADGSGTVDFEEFMGVMT [S34W],0.76 kcal/mol
13,ELREAFRLYDKEGNGYISTDVMREILAELDETLISEDLDAMIDEIDADGSGTVDFEEFMGVMT [S34I],0.894 kcal/mol
14,ELREAFRLYDKEGNGYISTDVMREILAELDETLMSEDLDAMIDEIDADGSGTVDFEEFMGVMT [S34M],1.27 kcal/mol
15,ELREAFRLYDKEGNGYISTDVMREILAELDETLGSEDLDAMIDEIDADGSGTVDFEEFMGVMT [S34G],1.26 kcal/mol
16,ELREAFRLYDKEGNGYISTDVMREILAELDETLYSEDLDAMIDEIDADGSGTVDFEEFMGVMT [S34Y],0.751 kcal/mol
17,ELREAFRLYDKEGNGYISTDVMREILAELDETLHSEDLDAMIDEIDADGSGTVDFEEFMGVMT [S34H],0.919 kcal/mol
18,ELREAFRLYDKEGNGYISTDVMREILAELDETLLSEDLDAMIDEIDADGSGTVDFEEFMGVMT [S34L],1.21 kcal/mol
19,ELREAFRLYDKEGNGYISTDVMREILAELDETLNSEDLDAMIDEIDADGSGTVDFEEFMGVMT [S34N],1.58 kcal/mol
20,ELREAFRLYDKEGNGYISTDVMREILAELDETLSPEDLDAMIDEIDADGSGTVDFEEFMGVMT [S35P],2.06 kcal/mol
21,ELREAFRLYDKEGNGYISTDVMREILAELDETLSEEDLDAMIDEIDADGSGTVDFEEFMGVMT [S35E],2.15 kcal/mol
22,ELREAFRLYDKEGNGYISTDVMREILAELDETLSAEDLDAMIDEIDADGSGTVDFEEFMGVMT [S35A],1.92 kcal/mol

row,Variant,folding stability dG
1,ELREAFRLYDKEGNGYISTDVMREILAELDETLSIEDLDAMIDEIDADGSGTVDFEEFMGVMT [S35I],1.79 kcal/mol
2,ELREAFRLYDKEGNGYISTDVMREILAELDETLSVEDLDAMIDEIDADGSGTVDFEEFMGVMT [S35V],1.77 kcal/mol
3,ELREAFRLYDKEGNGYISTDVMREILAELDETLSNEDLDAMIDEIDADGSGTVDFEEFMGVMT [S35N],1.85 kcal/mol
4,ELREAFRLYDKEGNGYISTDVMREILAELDETLSKEDLDAMIDEIDADGSGTVDFEEFMGVMT [S35K],2.14 kcal/mol
5,ELREAFRLYDKEGNGYISTDVMREILAELDETLSWEDLDAMIDEIDADGSGTVDFEEFMGVMT [S35W],1.48 kcal/mol
6,ELREAFRLYDKEGNGYISTDVMREILAELDETLSFEDLDAMIDEIDADGSGTVDFEEFMGVMT [S35F],1.48 kcal/mol
7,ELREAFRLYDKEGNGYISTDVMREILAELDETLSDEDLDAMIDEIDADGSGTVDFEEFMGVMT [S35D],1.92 kcal/mol
8,ELREAFRLYDKEGNGYISTDVMREILAELDETLSREDLDAMIDEIDADGSGTVDFEEFMGVMT [S35R],1.96 kcal/mol
9,ELREAFRLYDKEGNGYISTDVMREILAELDETLSMEDLDAMIDEIDADGSGTVDFEEFMGVMT [S35M],1.86 kcal/mol
10,ELREAFRLYDKEGNGYISTDVMREILAELDETLSQEDLDAMIDEIDADGSGTVDFEEFMGVMT [S35Q],2.05 kcal/mol
11,ELREAFRLYDKEGNGYISTDVMREILAELDETLSCEDLDAMIDEIDADGSGTVDFEEFMGVMT [S35C],1.64 kcal/mol
12,ELREAFRLYDKEGNGYISTDVMREILAELDETLSGEDLDAMIDEIDADGSGTVDFEEFMGVMT [S35G],1.78 kcal/mol
13,ELREAFRLYDKEGNGYISTDVMREILAELDETLSLEDLDAMIDEIDADGSGTVDFEEFMGVMT [S35L],1.69 kcal/mol
14,ELREAFRLYDKEGNGYISTDVMREILAELDETLSHEDLDAMIDEIDADGSGTVDFEEFMGVMT [S35H],1.82 kcal/mol
15,ELREAFRLYDKEGNGYISTDVMREILAELDETLSTEDLDAMIDEIDADGSGTVDFEEFMGVMT [S35T],1.81 kcal/mol
16,ELREAFRLYDKEGNGYISTDVMREILAELDETLSYEDLDAMIDEIDADGSGTVDFEEFMGVMT [S35Y],1.53 kcal/mol
17,ELREAFRLYDKEGNGYISTDVMREILAELDEKLSSEDLDAMIDEIDADGSGTVDFEEFMGVMT [T32K],1.79 kcal/mol
18,ELREAFRLYDKEGNGYISTDVMREILAELDEWLSSEDLDAMIDEIDADGSGTVDFEEFMGVMT [T32W],1.62 kcal/mol
19,ELREAFRLYDKEGNGYISTDVMREILAELDEMLSSEDLDAMIDEIDADGSGTVDFEEFMGVMT [T32M],1.52 kcal/mol
20,ELREAFRLYDKEGNGYISTDVMREILAELDEPLSSEDLDAMIDEIDADGSGTVDFEEFMGVMT [T32P],0.441 kcal/mol
21,ELREAFRLYDKEGNGYISTDVMREILAELDERLSSEDLDAMIDEIDADGSGTVDFEEFMGVMT [T32R],1.74 kcal/mol
22,ELREAFRLYDKEGNGYISTDVMREILAELDECLSSEDLDAMIDEIDADGSGTVDFEEFMGVMT [T32C],1.73 kcal/mol

row,Variant,folding stability dG
1,ELREAFRLYDKEGNGYISTDVMREILAELDEHLSSEDLDAMIDEIDADGSGTVDFEEFMGVMT [T32H],1.8 kcal/mol
2,ELREAFRLYDKEGNGYISTDVMREILAELDESLSSEDLDAMIDEIDADGSGTVDFEEFMGVMT [T32S],1.99 kcal/mol
3,ELREAFRLYDKEGNGYISTDVMREILAELDEVLSSEDLDAMIDEIDADGSGTVDFEEFMGVMT [T32V],0.877 kcal/mol
4,ELREAFRLYDKEGNGYISTDVMREILAELDENLSSEDLDAMIDEIDADGSGTVDFEEFMGVMT [T32N],1.86 kcal/mol
5,ELREAFRLYDKEGNGYISTDVMREILAELDEALSSEDLDAMIDEIDADGSGTVDFEEFMGVMT [T32A],1.5 kcal/mol
6,ELREAFRLYDKEGNGYISTDVMREILAELDEILSSEDLDAMIDEIDADGSGTVDFEEFMGVMT [T32I],0.878 kcal/mol
7,ELREAFRLYDKEGNGYISTDVMREILAELDEGLSSEDLDAMIDEIDADGSGTVDFEEFMGVMT [T32G],1.67 kcal/mol
8,ELREAFRLYDKEGNGYISTDVMREILAELDELLSSEDLDAMIDEIDADGSGTVDFEEFMGVMT [T32L],1.46 kcal/mol
9,ELREAFRLYDKEGNGYISTDVMREILAELDEQLSSEDLDAMIDEIDADGSGTVDFEEFMGVMT [T32Q],1.57 kcal/mol
10,ELREAFRLYDKEGNGYISTDVMREILAELDEYLSSEDLDAMIDEIDADGSGTVDFEEFMGVMT [T32Y],1.54 kcal/mol
11,ELREAFRLYDKEGNGYISTDVMREILAELDEDLSSEDLDAMIDEIDADGSGTVDFEEFMGVMT [T32D],1.42 kcal/mol
12,ELREAFRLYDKEGNGYISTDVMREILAELDEELSSEDLDAMIDEIDADGSGTVDFEEFMGVMT [T32E],1.48 kcal/mol
13,ELREAFRLYDKEGNGYISTDVMREILAELDEFLSSEDLDAMIDEIDADGSGTVDFEEFMGVMT [T32F],1.62 kcal/mol
14,ELREAFRLYDKEGNGYISTDVMREILAELDETLSSGDLDAMIDEIDADGSGTVDFEEFMGVMT [E36G],1.54 kcal/mol
15,ELREAFRLYDKEGNGYISTDVMREILAELDETLSSFDLDAMIDEIDADGSGTVDFEEFMGVMT [E36F],1.83 kcal/mol
16,ELREAFRLYDKEGNGYISTDVMREILAELDETLSSCDLDAMIDEIDADGSGTVDFEEFMGVMT [E36C],1.85 kcal/mol
17,ELREAFRLYDKEGNGYISTDVMREILAELDETLSSADLDAMIDEIDADGSGTVDFEEFMGVMT [E36A],1.96 kcal/mol
18,ELREAFRLYDKEGNGYISTDVMREILAELDETLSSDDLDAMIDEIDADGSGTVDFEEFMGVMT [E36D],1.89 kcal/mol
19,ELREAFRLYDKEGNGYISTDVMREILAELDETISSEDLDAMIDEIDADGSGTVDFEEFMGVMT [L33I],1.36 kcal/mol
20,ELREAFRLYDKEGNGYISTDVMREILAELDETQSSEDLDAMIDEIDADGSGTVDFEEFMGVMT [L33Q],0.501 kcal/mol
21,ELREAFRLYDKEGNGYISTDVMREILAELDETPSSEDLDAMIDEIDADGSGTVDFEEFMGVMT [L33P],-0.18 kcal/mol
22,ELREAFRLYDKEGNGYISTDVMREILAELDETCSSEDLDAMIDEIDADGSGTVDFEEFMGVMT [L33C],1.07 kcal/mol

row,Variant,folding stability dG
1,ELREAFRLYDKEGNGYISTDVMREILAELDETGSSEDLDAMIDEIDADGSGTVDFEEFMGVMT [L33G],-0.126 kcal/mol
2,ELREAFRLYDKEGNGYISTDVMREILAELDETESSEDLDAMIDEIDADGSGTVDFEEFMGVMT [L33E],-0.382 kcal/mol
3,ELREAFRLYDKEGNGYISTDVMREILAELDETHSSEDLDAMIDEIDADGSGTVDFEEFMGVMT [L33H],0.717 kcal/mol
4,ELREAFRLYDKEGNGYISTDVMREILAELDETYSSEDLDAMIDEIDADGSGTVDFEEFMGVMT [L33Y],1.43 kcal/mol
5,ELREAFRLYDKEGNGYISTDVMREILAELDETKSSEDLDAMIDEIDADGSGTVDFEEFMGVMT [L33K],0.956 kcal/mol
6,ELREAFRLYDKEGNGYISTDVMREILAELDETVSSEDLDAMIDEIDADGSGTVDFEEFMGVMT [L33V],0.861 kcal/mol
7,ELREAFRLYDKEGNGYISTDVMREILAELDETASSEDLDAMIDEIDADGSGTVDFEEFMGVMT [L33A],1.02 kcal/mol
8,ELREAFRLYDKEGNGYISTDVMREILAELDETFSSEDLDAMIDEIDADGSGTVDFEEFMGVMT [L33F],1.34 kcal/mol
9,ELREAFRLYDKEGNGYISTDVMREILAELDETDSSEDLDAMIDEIDADGSGTVDFEEFMGVMT [L33D],-0.084 kcal/mol
10,ELREAFRLYDKEGNGYISTDVMREILAELDETSSSEDLDAMIDEIDADGSGTVDFEEFMGVMT [L33S],0.411 kcal/mol
11,ELREAFRLYDKEGNGYISTDVMREILAELDETRSSEDLDAMIDEIDADGSGTVDFEEFMGVMT [L33R],1.36 kcal/mol
12,ELREAFRLYDKEGNGYISTDVMREILAELDETNSSEDLDAMIDEIDADGSGTVDFEEFMGVMT [L33N],0.113 kcal/mol
13,ELREAFRLYDKEGNGYISTDVMREILAELDETMSSEDLDAMIDEIDADGSGTVDFEEFMGVMT [L33M],1.41 kcal/mol
14,ELREAFRLYDKEGNGYISTDVMREILAELDETTSSEDLDAMIDEIDADGSGTVDFEEFMGVMT [L33T],0.695 kcal/mol
15,ELREAFRLYDKEGNGYISTDVMREILAELDETWSSEDLDAMIDEIDADGSGTVDFEEFMGVMT [L33W],1.83 kcal/mol
16,ELREAFRLYDKEGNGYISTDVMREILAELDVTLSSEDLDAMIDEIDADGSGTVDFEEFMGVMT [E31V],2.01 kcal/mol
17,ELREAFRLYDKEGNGYISTDVMREILAELDWTLSSEDLDAMIDEIDADGSGTVDFEEFMGVMT [E31W],1.98 kcal/mol
18,ELREAFRLYDKEGNGYISTDVMREILAELDYTLSSEDLDAMIDEIDADGSGTVDFEEFMGVMT [E31Y],2.01 kcal/mol
19,ELREAFRLYDKEGNGYISTDVMREILAELDTTLSSEDLDAMIDEIDADGSGTVDFEEFMGVMT [E31T],2.12 kcal/mol
